T1: FFL_001 (synthetic construct (designed scaffold))
T1 chain: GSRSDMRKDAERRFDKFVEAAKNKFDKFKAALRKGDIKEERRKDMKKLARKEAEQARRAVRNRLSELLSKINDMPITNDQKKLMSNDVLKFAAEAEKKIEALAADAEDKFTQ


How the values were obtained:
Experiment in all cases: SPR
[1] = target: FFL_001_surf1
[2] = target: FFL_001_surf2
[3] = target: FFL_001_surf4
[4] = target: T1, FFL_001

Molecule	Kd [1]	kon [1]	Kd [2]	koff [2]	kon [2]	Kd [3]	koff [3]	Kd [4]
motavizumab Fab	0.00632 nM	7.43e+06 M⁻¹ s⁻¹	0.0296 nM	0.000158 s⁻¹	5.32e+06 M⁻¹ s⁻¹	0.0329 nM	0.000158 s⁻¹	
17-HD9 IgG (antibody, V domains shown) VH: QVQLQESGPGLVKPSETLSLTCVVSGGSFSSYYWTWIRQSPGKGLEWIGEMNGNSGYTNYNPSLQSRVTISKDASKNQFSLKLTSLTAADTAVYYCARDAIVMVFTDMRGRVDVWGPGILVTVSS VL: DIQMSQSPSSLSASVGDTVTITCRASQGISNYLAWYQQKPGKAPKSLIYYTSHLESGVPSRFSGSGSGTDFSLTISSLQPEDFATYYCQQHNSYPRTFGQGTKVEIK								~0.003 nM

— article PMC4260937 (Nature, 2014)
